In paper PMC9135701:

Molecular target: spGFP_(1-10/11)-MSP1D1
Test: SEC; purified scaffold protein without lipids; Superose 6 Increase 10/300 GL, 50 mM Tris-HCl pH 8, 100 mM NaCl, 5% glycerol; monomer (intramolecular complementation) against dimer (intermolecular complementation)

Substance: spGFP_(1-10/11)-MSP1D1
- percent dimeric: 30%
- stoichiometry N: 2
